{"source": "paper PMC8786865", "about": "(Nature Communications, 2022)", "binders": {"B1": {"name": "selected anti-SARS-CoV-2 spike antibody C1 (antibody, V domains shown)", "VH": "EVQLVQSGAEVKKPGASVKVSCKVSGYSFTDHSIHWVRQAPGKGLEWMGGISTQRGDTIYAQKFQGRVTMTEDTSTDTAYMELSSLKSEDTAVYYCARDGYYGSGTYYYYGMDVWGQGTTVTVSS", "VL": "DIQMTQSPSSVSASVGDRVTITCRASQSIGSFLAWYQQKPGKAPKLLIYGESNRATGVPSRFSGSGSGTDFTLTISSLQPEDFANYYCQQYNRYPWAFGGGTKVEIK"}, "B2": {"name": "selected anti-SARS-CoV-2 spike antibody C7 (antibody, V domains shown)", "VH": "QVQLVQSGAEVKKPGASVKVSCKVSGYSFTNYAIHWVRQAPGKGLEWMGGITPYNADTIYAQKFQGRVTMTEDTSTDTAYMELSSLKSEDTAVYYCARDGGNWAAPYSMDVWGNGTLVTVSS", "VL": "DIQMTQSPSSVSASVGDRVTITCRASHGISSYLAWYQQKPGKAPKLLIYDATIRATGVPSRFSGSGSGTDFTLTISSLQPEDFANYYCHQYATYPWTFGGGTKVEIK"}, "B3": {"name": "selected anti-SARS-CoV-2 spike antibody B3 (antibody, V domains shown)", "VH": "EVQLVQSGAEVKKPGASVKVSCKVSGYTSPATIHWVRQAPGKGLEWMGGISPYKGDTIYAQKFQGRVTMTEDTSTDTAYMELSSLKSEDTAVYYCAKDSYYYDSSGSGLGGGFDYWGQGTLVTVSS", "VL": "DIQMTQSPSSVSASVGDRVTITCRASQDIGNHLAWYQQKPGKAPKLLIYASSNLASGVPSRFSGSGSGTDFTLTISSLQPEDFANYYCHQYATYPWTFGGGTKVEIK"}, "B4": {"name": "selected anti-SARS-CoV-2 spike antibody G5 (antibody, V domains shown)", "VH": "QVQLVQSGAEVKKPGASVKVSCKVSGYSFTDHSIHWVRQAPGKGLEWMGGINPYTGDTIYAQKFQGRVTMTEDTSTDTAYMELSSLKSEDTAVYYCARDGYSYGYLSGMDVWGQGTTVTVSS", "VL": "DIQMTQSPSSVSASVGDRVTITCRASQDISHHLAWYQQKPGKAPKLLIYDASLRATGIPSRFSGSGSGTDFTLTISSLQPEDFANYYCHQYAAYPWTFGGGTKVEIK"}, "B5": {"name": "selected anti-SARS-CoV-2 spike antibody B11 (antibody, V domains shown)", "VH": "EVQLVQSGAEVKKPGASVKVSCKVSGYSFTDHSIHWVRQAPGKGLEWMGGINPYTGDTIYAQKFQGRVTMTEDTSTDTAYMELSSLKSEDTAVYYCARDAYPYYYGMDVWGQGTTVTVSS", "VL": "DIQMTQSPSSVSASVGDRVTITCRASQDIGNHLAWYQQKPGKAPKLLIYASSNLASGVPSRFSGSGSGTDFTLTISSLQPEDFANYYCHQYATYPWTFGGGTKVEIK"}, "B6": {"name": "selected anti-SARS-CoV-2 spike antibody A10 (antibody, V domains shown)", "VH": "QVQLVQSGAEVKKPGASVKVSCKVSGYSFTDHSIHWVRQAPGKGLEWMGGINPNIGDTIYAQKFQGRVTMTEDTSTDTAYMELSSLKSEDTAVYYCARDGYGDYRGLYGMDVWGQGTTVTVSS", "VL": "DIQMTQSPSSVSASVGDRVTITCRASRDINKYLAWYQQKPGKAPKLLIYGESSRAAGVPSRFSGSGSGTDFTLTISSLQPEDFANYYCHQYATYPWTFGGGTKVEIK"}, "B7": {"name": "selected anti-SARS-CoV-2 spike antibody C4 (antibody, V domains shown)", "VH": "EVQLVQSGAEVKKPGASVKVSCKVSGYSFTDHSIHWVRQAPGKGLEWMGGINPYTGDTIYAQKFQGRVTMTEDTSTDTAYMELSSLKSEDTAVYYCARDGYSGYDYGSVGRDYYYYGMDVWGQGTTVTVSS", "VL": "DIQMTQSPSSVSASVGDRVTITCRASQDIGNHLAWYQQKPGKAPKLLIYASSNLASGVPSRFSGSGSGTDFTLTISSLQPEDFANYYCHQYATYPWTFGGGTKVEIK"}, "B8": {"name": "selected anti-SARS-CoV-2 spike antibody D3 (antibody, V domains shown)", "VH": "EVQLVQSGAEVKKPGASVKVSCKVSGYSFADYAIHWVRQAPGKGLEWMGGINPNIGDTIYAQKFQGRVTMTEDTSTDTAYMELSSLKSEDTAVYYCARDGYDFWSGSYGMDVWGQGTTVTVSS", "VL": "DIQMTQSPSSVSASVGDRVTITCRASQDIGNHLAWYQQKPGKAPKLLIYASSNLASGVPSRFSGSGSGTDFTLTISSLQPEDFANYYCQQYSEYPWTFGGGTKVEIK"}, "B9": {"name": "selected anti-SARS-CoV-2 spike antibody F7 (antibody, V domains shown)", "VH": "QVQLVQSGAEVKKPGASVKVSCKVSGYSFSTYTIHWVRQAPGKGLEWMGGINPYTGDTIYAQKFQGRVTMTEDTSTDTAYMELSSLKSEDTAVYYCARDGYSGYESSYYYYGMDVWGQGTTVTVSS", "VL": "DIQMTQSPSSVSASVGDRVTITCRASQDIGNHLAWYQQKPGKAPKLLIYASSNLASGVPSRFSGSGSGTDFTLTISSLQPEDFANYYCHQYATYPWTFGGGTKVEIK"}, "B10": {"name": "selected anti-SARS-CoV-2 spike antibody B7 (antibody, V domains shown)", "VH": "QVQLVQSGAEVKKPGASVKVSCKVSGYSFTDHSIHWVRQAPGKGLEWMGGINPNIGDTIYAQKFQGRVTMTEDTSTDTAYMELSSLKSEDTAVYYCAKDGWGSLLNGIAVAGLDYWGQGTLVTVSS", "VL": "DIQMTQSPSSVSASVGDRVTITCRASQDIGNHLAWYQQKPGKAPKLLIYASSNLASGVPSRFSGSGSGTDFTLTISSLQPEDFANYYCHQYATYPWTFGGGTKVEIK"}, "B11": {"name": "selected anti-SARS-CoV-2 spike antibody C2 (antibody, V domains shown)", "VH": "QVQLVQSGAEVKKPGASVKVSCKASGYTSPATIHWVRQAPGKGLEWMGGISPYKGDTIYAQKFQGRVTMTEDTSTDTAYMELSSLKSEDTAVYYCARDAYSSSYYYGMDVWGQGTTVTVSS", "VL": "DIQMTQSPSSVSASVGDRVTITCRASEDISKYLAWYQQKPGKAPKLLIYGASNLHTGVPSRFSGSGSGTDFTLTISSLQPEDFANYYCHQYATYPWTFGGGTKVEIK"}, "B12": {"name": "selected anti-SARS-CoV-2 spike antibody A12 (antibody, V domains shown)", "VH": "EVQLVQSGAEVKKPGASVKVSCKVSGYSFTDHSIHWVRQAPGKGLEWMGGINPYTGDTIYAQKFQGRVTMTEDTSTDTAYMELSSLKSEDTAVYYCARDGWGSLLNGIAVAGLDYWGQGTLVTVSS", "VL": "DIQMTQSPSSVSASVGDRVTITCRASQDIGNHLAWYQQKPGKAPKLLIYASSNLASGVPSRFSGSGSGTDFTLTISSLQPEDFANYYCHQYATYPWTFGGGTKVEIK"}, "B13": {"name": "selected anti-SARS-CoV-2 spike antibody F5 (antibody, V domains shown)", "VH": "EVQLVQSGAEVKKPGASVKVSCKVSGYTFSNHAIHWVRQAPGKGLEWMGGINPNIGDTIYAQKFQGRVTMTEDTSTDTAYMELSSLKSEDTAVYYCARDGYSGYVEGMDVWGQGTTVTVSS", "VL": "DIQMTQSPSSVSASVGDRVTITCRASQNIHSYLAWYQQKPGKAPKLLIYDTSKLQSGVPSRFSGSGSGTDFTLTISSLQPEDFANYYCHQYAAYPWTFGGGTKVEIK"}, "B14": {"name": "selected anti-SARS-CoV-2 spike antibody D2 (antibody, V domains shown)", "VH": "QVQLVQSGAEVKKPGASVKVSCKVSGYSFTDHSIHWVRQAPGKGLEWMGGINPYTGDTIYAQKFQGRVTMTEDTSTDTAYMELSSLKSEDTAVYYCARDARLLDYWGQGAQVTVSS", "VL": "DIQMTQSPSSVSASVGDRVTITCRASRSIGNHLAWYQQKPGKAPKLLIYASSNLASGVPSRFSGSGSGTDFTLTISSLQPEDFANYYCHQYATYPWTFGGGTKVEIK"}, "B15": {"name": "selected anti-SARS-CoV-2 spike antibody G4 (antibody, V domains shown)", "VH": "QVQLVQSGAEVKKPGASVKVSCKVSGYTLSDHAIHWVRQAPGKGLEWMGGINPYTGDTIYAQKFQGRVTMTEDTSTDTAYMELSSLKSEDTAVYYCARDGYDFWSGSYGMDVWGQGTTVTVSS", "VL": "DIQMTQSPSSVSASVGDRVTITCRASQDIGNHLAWYQQKPGKAPKLLIYASSNLASGVPSRFSGSGSGTDFTLTISSLQPEDFANYYCHQYATYPWTFGGGTKVEIK"}, "B16": {"name": "selected anti-SARS-CoV-2 spike antibody G2 (antibody, V domains shown)", "VH": "QVQLVQSGAEVKKPGASVKVSCKVSGYTFTANAIHWVRQAPGKGLEWMGGIGPGQGDTIYAQKFQGRVTMTEDTSTDTAYMELSSLKSEDTAVYYCARDGHCSGGSCPSGMDVWGQGTTVTVSS", "VL": "DIQMTQSPSSVSASVGDRVTITCRASQDIGNHLAWYQQKPGKAPKLLIYGASIRESGVPSRFSGSGSGTDFTLTISSLQPEDFANYYCQQYSAFPWTFGGGTKVEIK"}, "B17": {"name": "selected anti-SARS-CoV-2 spike antibody F1 (antibody, V domains shown)", "VH": "EVQLVQSGAEVKKPGASVKVSCKVSGYPFTSYAIHWVRQAPGKGLEWMGGITPYNADTIYAQKFQGRVTMTEDTSTDTAYMELSSLKSEDTAVYYCARDGYSSGYYGMDVWGQGTTVTVSS", "VL": "DIQMTQSPSSVSASVGDRVTITCRASQDIGNHLAWYQQKPGKAPKLLIYASSNLASGVPSRFSGSGSGTDFTLTISSLQPEDFANYYCHQYATYPWTFGGGTKVEIK"}, "B18": {"name": "selected anti-SARS-CoV-2 spike antibody G12 (antibody, V domains shown)", "VH": "EVQLVQSGAEVKKPGASVKVSCKVSGYTFSNHAIHWVRQAPGKGLEWMGGINPNIGDTIYAQKFQGRVTMTEDTSTDTAYMELSSLKSEDTAVYYCARDGYGDYRGLYGMDVWGQGTTVTVSS", "VL": "DIQMTQSPSSVSASVGDRVTITCRASQDIGNHLAWYQQKPGKAPKLLIYASSNLASGVPSRFSGSGSGTDFTLTISSLQPEDFANYYCHQYATYPWTFGGGTKVEIK"}, "B19": {"name": "selected anti-SARS-CoV-2 spike antibody H2 (antibody, V domains shown)", "VH": "EVQLVQSGAEVKKPGASVKVSCKVSGYPFTRSTIHWVRQAPGKGLEWMGGINAGTGDTIYAQKFQGRVTMTEDTSTDTAYMELSSLKSEDTAVYYCARDGYSSGYYGMDVWGQGTLVTVSS", "VL": "DIQMTQSPSSVSASVGDRVTITCRASQGISDFLAWYQQKPGKAPKLLIYGASNRATGVPSRFSGSGSGTDFTLTISSLQPEDFANYYCHQYATYPWTFGGGTKVEIK"}, "B20": {"name": "selected anti-SARS-CoV-2 spike antibody G6 (antibody, V domains shown)", "VH": "EVQLVESGAEVKKPGASVKVSCKVSGYTFSNHAIHWVRQAPGKGLEWMGGINPNIGDTIYAQKFQGRVTMTEDTSTDTAYMELSSLKSEDTAVYYCARDGYPGDYSGLDVWGQGTLVTVSS", "VL": "DIQMTQSPSSVSASVGDRVTITCRASQPISSYLAWYQQKPGKAPKLLIYEASKLQSGVPSRFSGSGSGTDFTLTISSLQPEDFANYYCHQYATYPWTFGGGTKVEIK"}, "B21": {"name": "selected anti-SARS-CoV-2 spike antibody A11 (antibody, V domains shown)", "VH": "QVQLVQSGAEVKKPGASVKVSCKVSGYSFTDHSIHWVRQAPGKGLEWMGGINPYTGDTIYAQKFQGRVTMTEDTSTDTAYMELSSLKSEDTAVYYCARDGYSYGYLSGMDVWGQGTTVTVSS", "VL": "DIQMTQSPSSVSASVGDRVTITCRASQDIGNHLAWYQQKPGKAPKLLIYASSNLASGVPSRFSGSGSGTDFTLTISSLQPEDFANYYCHQYATYPWTFGGGTKVEIK"}}, "data": [{"target": "T1, SARS-CoV-2 spike receptor-binding domain (RBD) (SARS-CoV-2, Wuhan-Hu-1, UniProt P0DTC2)", "T1 construct": "also called SARS-CoV-2 RBD", "assay": "SPR; array SPR (Carterra LSA), HC200M chip; IgG captured on immobilised anti-human Fc; antigen as analyte in a 7-point series, RBD 300 nM to 411 pM or trimer 100 nM to 137 pM, in 1x HBSTE with 0.5 mg/mL BSA; association 5 min, dissociation 11 min; one-site model; constants for the trimer are called avidities", "conditions": "both partners purified", "values": [{"binder": "B1", "binding result": "binds"}, {"binder": "B2", "binding result": "binds"}, {"binder": "B3", "binding result": "binds"}, {"binder": "B4", "binding result": "binds"}, {"binder": "B5", "binding result": "binds"}, {"binder": "B6", "binding result": "binds"}, {"binder": "B7", "binding result": "binds"}, {"binder": "B8", "binding result": "binds"}, {"binder": "B9", "binding result": "binds"}, {"binder": "B10", "binding result": "binds"}, {"binder": "B11", "binding result": "binds"}, {"binder": "B12", "binding result": "binds"}, {"binder": "B13", "binding result": "binds"}, {"binder": "B14", "binding result": "binds"}, {"binder": "B15", "binding result": "binds"}, {"binder": "B16", "binding result": "binds"}, {"binder": "B17", "binding result": "binds"}, {"binder": "B18", "binding result": "binds"}, {"binder": "B19", "binding result": "binds"}, {"binder": "B20", "binding result": "binds"}, {"binder": "B21", "binding result": "binds"}]}]}
